In PMC3365590 (Journal of Molecular Biology, 2010):

Target: the molecule itself
Test: SEC

B1: ROK fructokinase YdhR from Bacillus subtilis, native protein (size exclusion chromatography) (enzyme, B. subtilis, UniProt O05510 1-299, looked up)
chain: MLGGIEAGGTKFVCAVGREDGTIIDRIEFPTKMPDETIEKVIQYFSQFSLQAIGIGSFGPVDNDKTSQTYGTITATPKAGWRHYPFLQTVKNEMKIPVGFSTDVNAAALGEFLFGEAKGLDSCLYITIGTGIGAGAIVEGRLLQGLSHPEMGHIYIRRHPDDVYQGKCPYHGDCFEGLASGPAIEARWGKKAADLSDIAQVWELEGYYIAQALAQYILILAPKKIILGGGVMQQKQVFSYIYQYVPKIMNSYLDFSELSDDISDYIVPPRLGSNAGIIGTLVLAHQALQAEAASGEVRS
  stoichiometry N: 2
